Biological target: Myc-PUM1-R1147W (human) (UniProt Q14671)
Assay: co-IP; HEK293T co-transfected with Myc-PUM1 (WT or mutant) and a GST-tagged protein (250 ng each), 48 h; IP with anti-Myc, immunoblot with anti-GST; quantified against Myc-PUM1-WT; called in vitro by the paper

Chain of UniProt Q14671 (Q14671 other isoform, or with tags, fused parts or gaps R1147W): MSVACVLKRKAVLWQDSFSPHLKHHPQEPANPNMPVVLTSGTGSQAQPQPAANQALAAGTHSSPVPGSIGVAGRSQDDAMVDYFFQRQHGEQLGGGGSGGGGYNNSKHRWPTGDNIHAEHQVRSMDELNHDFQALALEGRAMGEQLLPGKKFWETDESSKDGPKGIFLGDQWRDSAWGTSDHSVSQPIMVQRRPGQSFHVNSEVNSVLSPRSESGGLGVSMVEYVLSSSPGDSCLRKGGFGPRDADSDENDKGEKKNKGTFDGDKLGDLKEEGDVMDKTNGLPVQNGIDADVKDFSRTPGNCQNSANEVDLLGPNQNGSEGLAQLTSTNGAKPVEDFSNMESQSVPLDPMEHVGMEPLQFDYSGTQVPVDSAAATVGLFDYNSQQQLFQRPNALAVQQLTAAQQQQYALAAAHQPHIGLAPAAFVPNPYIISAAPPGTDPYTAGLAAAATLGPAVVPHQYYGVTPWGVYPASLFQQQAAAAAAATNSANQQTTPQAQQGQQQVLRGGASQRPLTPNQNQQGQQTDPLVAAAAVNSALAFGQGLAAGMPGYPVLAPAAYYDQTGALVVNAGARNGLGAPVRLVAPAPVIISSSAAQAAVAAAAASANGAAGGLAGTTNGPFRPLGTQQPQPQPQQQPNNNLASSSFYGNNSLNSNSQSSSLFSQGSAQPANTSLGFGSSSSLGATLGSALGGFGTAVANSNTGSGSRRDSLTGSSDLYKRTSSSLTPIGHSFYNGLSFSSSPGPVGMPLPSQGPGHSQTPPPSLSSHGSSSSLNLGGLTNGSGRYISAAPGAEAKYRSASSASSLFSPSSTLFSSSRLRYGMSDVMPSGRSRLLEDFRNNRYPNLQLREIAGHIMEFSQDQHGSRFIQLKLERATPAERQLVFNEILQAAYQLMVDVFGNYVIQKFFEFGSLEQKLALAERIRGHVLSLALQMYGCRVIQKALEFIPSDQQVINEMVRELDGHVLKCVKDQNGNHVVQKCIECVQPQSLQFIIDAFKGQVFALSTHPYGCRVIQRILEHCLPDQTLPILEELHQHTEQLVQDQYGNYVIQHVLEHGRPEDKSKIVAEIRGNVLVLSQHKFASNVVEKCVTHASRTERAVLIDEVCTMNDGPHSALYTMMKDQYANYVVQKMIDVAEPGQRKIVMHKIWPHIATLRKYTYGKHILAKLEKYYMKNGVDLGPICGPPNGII

GST-CNOT1 (from UniProt A5YKK6 1-2376) (natural protein)
percent by which the interaction was diminished: 35%

From article PMC10233381
